# Experimental data reported in patent publication US20120283136A1, “COMPOSITIONS AND METHODS FOR THE RAPID BIOSYNTHESIS AND IN VIVO SCREENING OF BIOLOGICALLY RELEVANT PEPTIDES” (THE UNIVERSITY OF SOUTHERN CALIFORNIA, priority 2009, published 2012).
# Entries after “also recorded” stand apart in the source; their conditions may differ. Where no end group is shown, it is not given here.
# How the values were obtained:
# LF protease = LF protease (Bacillus anthracis, UniProt P15917); assay type: biochemical, B. anthracis strain Sterne
# [1] = Saether et al. (1995); cited from earlier work
# trypsin [2] = details: read-out: Ki (affinity for trypsin); cited from earlier work
# trypsin [3] = biological target: trypsin (Sus scrofa, UniProt P00761); assay: Competing trypsin-binding experiments (sequential extraction with limiting trypsin-sepharose); details: in vitro and in vivo cyclized libraries, trypsin-sepharose under competing conditions (about 20% of beads required for stoichiometric binding), MCoTI-I wt as internal reference
# Chain of trypsin (Sus scrofa, UniProt P00761) (P00761 9-231): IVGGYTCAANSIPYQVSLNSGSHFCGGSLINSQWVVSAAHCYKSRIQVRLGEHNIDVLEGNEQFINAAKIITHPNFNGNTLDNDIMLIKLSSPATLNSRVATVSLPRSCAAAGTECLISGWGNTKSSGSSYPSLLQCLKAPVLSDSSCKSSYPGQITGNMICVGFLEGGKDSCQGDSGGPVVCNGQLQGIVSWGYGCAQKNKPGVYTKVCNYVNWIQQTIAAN
substance,measurement,setting,value
H-RRKKVYPYPMEGTIA-NH2 [consensus LF substrate peptide made by Fmoc solid-phase synthesis],time for cleavage of the P1-P1′ peptide bond by LF,LF protease,less than 15 minutes
"Kalata B1 (cyclo(GLPVCGETCVGGTCNTPGCTCSWPVCTRN); ends not checked; also: three disulfide bonds (cystine knot), pairing not given here; UniProt P56254 89-117, looked up) [first cyclotide to be discovered, from Oldenlandia affinis]",oral bioavailability,[1],orally bioavailable
"MCoTI-II (cyclo(SGSDGGVCPKILKKCRRDSDCPGACICRGNGYCG); ends not checked; also: three disulfide bonds (cystine knot), pairing not given here; UniProt P82409 1-34, looked up)",Ki,trypsin [2],~2 pM
Q7G (CGSGSDGGVCPKILGRCRRDSDCPGACICRGNGY; not fully specified (bridges); ends and bridges not checked),relative affinity for trypsin versus MCoTI-I wt (elution profile),trypsin [3],lower affinity; also recorded: weaker affinity
